Consider eight substances from IntAct's records for PubMed 16293620.

The experiment has as its target pag_bacan pagA (UniProt P13423).
As for “Lethal factor (Bacillus anthracis) (from UniProt P15917) D139A”, the “effect of a mutation on the interaction” value is “decreasing interaction”.

As for “Lethal factor (Bacillus anthracis) (from UniProt P15917) D169A”, the “effect of a mutation on the interaction” value is “decreasing interaction”.

Turning to “Lethal factor (Bacillus anthracis) (from UniProt P15917) D169K”, the “effect of a mutation on the interaction” value is on record as “decreasing interaction”.

Turning to “Lethal factor (Bacillus anthracis) (from UniProt P15917) E168A”, the “effect of a mutation on the interaction” value was “decreasing interaction”.

As for “Lethal factor (Bacillus anthracis) (from UniProt P15917) E168K”, the “effect of a mutation on the interaction” value was “decreasing interaction”.

Consider “Lethal factor (Bacillus anthracis) (from UniProt P15917) K176A”, for which the “effect of a mutation on the interaction” value is given as “decreasing interaction”.

With “Lethal factor (Bacillus anthracis) (from UniProt P15917) N173A”, the “effect of a mutation on the interaction” value is on record as “decreasing interaction”.

With “Lethal factor (Bacillus anthracis) (from UniProt P15917) Y141K”, the “effect of a mutation on the interaction” value is given as “decreasing interaction”.
